Molecular target: T1, AtVOZ2m (Arabidopsis thaliana, UniProt Q9SLB9 1-450, C249A;H253A)
T1 sequence: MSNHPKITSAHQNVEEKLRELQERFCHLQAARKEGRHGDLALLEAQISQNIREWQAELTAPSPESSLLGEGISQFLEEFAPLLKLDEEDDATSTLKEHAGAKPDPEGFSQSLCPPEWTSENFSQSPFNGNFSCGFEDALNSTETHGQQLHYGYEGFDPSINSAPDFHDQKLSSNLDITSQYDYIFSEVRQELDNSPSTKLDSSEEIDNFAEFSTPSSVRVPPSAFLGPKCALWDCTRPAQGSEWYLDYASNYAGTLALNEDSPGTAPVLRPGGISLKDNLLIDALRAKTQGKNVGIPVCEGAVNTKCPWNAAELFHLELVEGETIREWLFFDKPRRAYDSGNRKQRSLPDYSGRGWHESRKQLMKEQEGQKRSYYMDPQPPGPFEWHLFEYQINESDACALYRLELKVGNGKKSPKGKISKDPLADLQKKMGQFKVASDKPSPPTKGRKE
Assay: EMSA

B1: pMOS3 (dsDNA)
DNA 1: GACGTCCGGCGCAGCGTTTATCAGACGCTGGGATTAAAACA
DNA 2: TGTTTTAATCCCAGCGTCTGATAAACGCTGCGCCGGACGTC
  binding result: no binding
